Columns and labels:
[1] = system: RAW264.7 cells; test: Release of TNF-α from RAW264.7 cells (ELISA); assay type: cell-based, murine; conditions: 0.5, 1 or 2 μg/ml, 8 hours
Method: In a RPMI1640 medium to which 10% heat inactivated FBS, 0.15% sodium bicarbonate, 100 units/ml penicillin, […] streptomycin and 2 mML-glutamine were added, murine macrophage-like RAW264.7 cells were proliferated in humidified air containing 5% CO2 at 37° C. Subsequently, cells were seeded on a 24-well or 96-well culture plate at a density of 5×10^5 cells/well, and cultured for 24 hours before use.
The RAW264.7 cells were seeded on a 24-well plate at a density of 2.5×10^5 cells/well, and incubated for 24 hours before treatment. Then, ssDNA, dsDNA, or several kinds of polypodnas diluted in 0.5 ml of Opti-MEM were added to the cells at a final concentration of 0.5, 1 or 2 μg/ml. The cells were incubated for 8 hours, the supernatant was recovered and stored at −70° C. before use. The concentrations of TNF-α and IL-6 in the supernatant were measured by Enzyme-Linked Immunosorbent Assay (ELISA) using an OptEIA™ set (Pharmingen, San Diego, Calif., USA).
The same experiment as in Example 22 was carried out except that each poolypodna preparation was prepared in the same manner as in Example 1 by using the sequences in Table 1. However, the added DNA was equal amount in each case.

[2] = Melting temperature (Tm) from melting curve, absorbance at 260 nm; assay type: physicochemical; conditions: sodium concentration of 5 mM
Method: Each DNA preparation was prepared in the same manner as in Example 1 by using the sequences in Table 1. The absorbance of polypodna or other DNA preparations at 260 nm was measured by using a Shimadzu UV-1600 PC spectrometer (Kyoto, Japan) equipped with a TMSPC-8 temperature controller 18. The melting temperature (Tm) was obtained from the melting curve at the sodium concentration of 5 mM in each preparation.

[3] = system: RAW264.7 cells; test: Uptake of cholesterol-modified Tetrapodna by cells; assay type: cell-based
Method: In order to examine applicability of nucleic acid having a modifying group, Tetrapodna using cholesterol-modified DNA was prepared. […] Furthermore, uptake of each Tetrapodna by RAW264.7 cells was measured.

[4] = system: atopic dermatitis model mouse; test: Application to atopic dermatitis model mouse; assay type: in vivo; conditions: vs Tetrapodna without cholesterol modification
[5] = Percentage of remaining gels with the passage of time; assay type: physicochemical; conditions: DNA 0.5 mM
Method: Gels were formed by adjusting the NaCl concentration at 150 mM in an aqueous solution containing Tetrapodna (12-14-14) (SEQ ID NOs.: 30, 31, 32 and 33) at a DNA concentration of 0.1 mM, 0.25 mM or 0.5 mM, and the percentage of the remaining gels was measured with the passage of time. The results are shown in a graph in the left upper side of FIG. 17.
Gels were formed in conditions at a certain DNA concentration (0.5 mM) and a certain NaCl concentration (150 mM), and the percentage of the remaining gels was measured with the passage of time by using Tetrapodna (respectively, SEQ ID NOs.: 2, 4, 5 and 6, SEQ ID NOs.: 18, 19, 20 and 21, SEQ ID NOs.: 22, 23, 24 and 25, SEQ ID NOs.: 26, 27, 28 and 29, as well as SEQ ID NOs.: 30, 31, 32 and 33) having various lengths of the cohesive protruding end (4, 6, 8, 10 or 12 bases). The results are shown in a graph in the left lower side of FIG. 17. […] When 12 hours had passed, the percentage of the remaining gels became about 50%.
Gels were formed by variously changing the NaCl concentrations (5 mM, 50 mM, 100 mM or 150 mM) of an aqueous solution containing Tetrapodna (12-14-14) (SEQ ID NOs.: 30, 31, 32 and 33) at a DNA concentration of 0.5 mM, and the percentage of the remaining gels was measured with the passage of time. The results are shown in a graph in the right upper side of FIG. 17. […] At a low salt concentration (5 mM), almost all the formed gels became in a sol state when about 6 hours had passed. When the salt concentration was increased to 50 mM, solation tendency was weakened, a change from a gel into a sol occurred moderately (about 40% when 12 hours had passed).
The percentage of the remaining gels was measured with the passage of time in the same manner as in (8-3) except that Tetrapodna (4-18-18) (SEQ ID NOs.: 2, 4, 5 and 6) was used instead of Tetrapodna (12-14-14) (SEQ ID NOs.: 30, 31, 32 and 33). The results are shown in a graph in the right lower side of FIG. 17. […] In (8-3), Tetrapodna (12-14-14) (the length of the cohesive protruding end is 12 bases) was used. In (8-4), Tetrapodna (4-18-18) (the length of the cohesive protruding end is 4 bases) was used.

[6] = system: splenocytes; test: IFN-γ production by splenocytes after immunization with OVA in gel; assay type: in vivo, mouse; conditions: 100 μg OVA + 100 μg DNA, spleen on Day 14, vs only OVA
[7] = system: mouse dendritic cell DC2.4; test: Stimulation of dendritic cells by gel; assay type: cell-based; conditions: gel brought into contact with DC2.4
[8] = Evaluation of gelation at various DNA concentrations and NaCl concentrations; assay type: physicochemical; set-up: key: ◯: the mark “∘” is given to cases in which gelation was observed; X: the mark “x” is given to cases of a solution state (sol-state)
Method: […] The gel formation and the gel strength were measured by a gel strength analyzer (gel strength meter, Nakayamadenki Co., Ltd, Osaka).
Specifically, by changing the DNA concentrations of an aqueous solution of Tripodona (4-18-18) (X=4) (SEQ ID NOs.: 1, 2 and 3), Tetrapodna (4-18-18) (X=4) (SEQ ID NOs.: 2, 4, 5 and 6), Hexapodna (4-18-18) (X=4) (SEQ ID NOs.: 2, 3, 4, 7, 9 and 10) and Tetrapodna (8-16-16) (X=8) (SEQ ID NOs.: 22, 23, 24 and 25) as shown in the lines of Table 4, and by changing the NaCl concentration as shown in the rows of Table 4, whether or not a gel is formed at various DNA concentrations and NaCl concentrations was evaluated. The results are shown such that the mark “∘” is given to cases in which gelation was observed, and the mark “x” is given to cases of a solution state (sol-state).

[9] = Temperature conditions for gel formation; assay type: physicochemical; conditions: NaCl 150 mM
Method: Furthermore, we investigated a possibility that temperature conditions are also involved in gelation. Tetrapodna (4-18-18) (SEQ ID NOs.: 2, 4, 5 and 6), Hexapodna (4-18-18) (SEQ ID NOs.: 2, 3, 4, 7, 9 and 10) and Tetrapodna (8-16-16) (SEQ ID NOs.: 22, 23, 24 and 25) were used to examine the temperature conditions for allowing a gel be present or a sol to be present by fixing the NaCl concentration at 150 mM and changing the DNA concentration variously.

[10] = Formation of hydrogel from nucleic acid units without ligase; assay type: physicochemical; conditions: without DNA ligase
Method: A NaCl solution was added to an ODN solution (polypodna) such that the final Na^+ concentration was 5 to 150 mM. The gel formation and the gel strength were measured by a gel strength analyzer (gel strength meter, Nakayamadenki Co., Ltd, Osaka).
A structure to be a hydrogel (a nucleic acid monomer and an estimated nucleic acid unit) in conditions at room temperature, at 5 mM to 150 mM sodium chloride concentration (150 mM is substantially physiological concentration), and not containing a DNA ligase was elucidated. […] For convenience, nucleic acid units estimated to be formed according to the number of nucleic acid monomers capable of constituting the nucleic acid unit were represented by xxxpodna (xxxpod-like structure forming nucleic acid, xxx is substituted by tri (3), tetra (4) and the like, according to the number of nucleic acid monomers capable of constituting the nucleic acid unit). In Table 2 described below, xxxpodna is an estimated nucleic acid unit, and each of xxx-Y-N is a nucleic acid monomer that can be a constituent element of the nucleic acid unit (xxxpodna) which is mentioned above thereof. When the descriptions of Ys are different from each other, different nucleic acid units can be formed. N denotes numbering of nucleic acid monomers constituting each of the estimated nucleic acid units.
Unlike (1-1) described above, gelation can be controlled by using a nucleic acid monomer including cohesive protruding ends which are not attached to themselves (that is, not palindrome sequence).

[11] = Release of encapsulated OVA from gel; assay type: physicochemical; conditions: DNA 0.5 mM, OVA 2.5 μg/μl
Method: By controlling the nature and salt concentration of protruding ends of Tetrapodna, the change of the releasing rate of an encapsulated compound in a gel was examined. Specifically, Tetrapodna (4-18-18) (SEQ ID NOs.: 2, 4, 5 and 6) including a cohesive protruding end and Tetrapodna (4-18-18) (SEQ ID NOs.: 58, 59, 60 and 61) as a control including a non-cohesive protruding end were used. In an aqueous solution of Tetrapodna which had been prepared such that the DNA concentration was 0.5 mM, the NaCl concentration was adjusted to 5 mM or 150 mM. When the NaCl concentration was increased, egg albumin (OVA, concentration of 2.5 μg/μl) was added as an encapsulated substance to cause gelation, and then the percentage of OVA released from the gel with the passage of time was measured.

[12] = Gel formation in a living body after subcutaneous injection of sol; assay type: in vivo; conditions: total DNA 2 mM, NaCl 5 mM, back of mouse
Excerpt: The hydrogel produced in Example 1 was able to be prepared in a sol state by appropriately adjusting conditions. Therefore, the hydrogel was able to be administered in a living body by injection. […] Thus, it was confirmed that a gel is formed in a living body only by preparing the hydrogel in accordance with the present invention in a sol state and administering the hydrogel to a living body.

B1: dsDNA36: double strand of dsDNA36-1 and dsDNA36-2, SEQ ID Nos. 108 and 109 (nucleic acid)
chain 1: TCGCTGACGTTGCAGACATCACGTTGACGCTGTCGA
chain 2: TCGACAGCGTCAACGTGATGTCTGCAACGTCAGCGA
modifications: unmodified DNA
For B1, the TNF-α release [1] was “the TNF-α release hardly occurred” and the Tm [2] was 66.5 °C.

B2: Chol-CpG DNA: Tetrapodna (SEQ ID NOs.: 2, 4, 5 and 6) which contains a cholesterol-modified nucleic acid monomer and a CpG motif (conjugate)
DNA 1: ACGTTCGACAGCGTCAACGTGAAACGTGAAGCGTCTGCGA
DNA 2: ACGTTCGCTGACGTTGCAGACATCACGTTGACGCTGTCGA
DNA 3: ACGTTCGCAGACGCTTCACGTTGCAGACAGACGTTGACGA
DNA 4: ACGTTCGTCAACGTCTGTCTGCTGTCTGCAACGTCAGCGA
modifications: DNA, phosphodiester; one monomer cholesterol-modified, strand and position not given here
For B2, the “uptake by RAW264.7 cells” value [3] was “incorporated into RAW264.7 cells better than Tetrapodna as a control which does not have cholesterol modification”, the tissue transferability ([4]; applied to skin) was “increased” and the skin inflammation [4] was “better suppressed”.

B3: Tetrapodna(4-18-18): four ODNs, SEQ ID NOs.: 2, 4, 5 and 6, 4-base cohesive protruding end, contains CpG motif (nucleic acid)
DNA 1: ACGTTCGACAGCGTCAACGTGAAACGTGAAGCGTCTGCGA
DNA 2: ACGTTCGCTGACGTTGCAGACATCACGTTGACGCTGTCGA
DNA 3: ACGTTCGCAGACGCTTCACGTTGCAGACAGACGTTGACGA
DNA 4: ACGTTCGTCAACGTCTGTCTGCTGTCTGCAACGTCAGCGA
modifications: unmodified DNA
For B3, the “percentage of the remaining gels with the passage of time” value ([5]; NaCl 150 mM) was “a gel became a sol with the passage of time”, the “percentage of the remaining gels” value ([5]; NaCl 150 mM, 12 hours) was “about 50%” and the “percentage of the remaining gels, dependence on salt concentration” value ([5]; NaCl 5, 50, 100 or 150 mM) was “as the salt concentration is higher, it tends to be present not in a sol but in a gel”. The “production of IFN-γ by splenocytes stimulated with OVA” value [6] was “remarkable increase in production amount of IFN-γ”, the “immunological stimulation of dendritic cell” value [7] was “significantly immunologically stimulated a mouse dendritic cell” and the gelation ([8]; Na+ 2 mM, DNA 0.8 mM) was “◯”. The gelation ([8]; Na+ 20 mM, DNA 0.6 mM) was “X”, the gelation ([8]; Na+ 20 mM, DNA 0.7 mM) was “X” and the gelation ([8]; Na+ 50 mM, DNA 0.6 mM) was “◯”. The gelation ([8]; Na+ 50 mM, DNA 0.7 mM) was “◯”, the gelation ([8]; Na+ 100 mM, DNA 0.5 mM) was “X” and the gelation ([8]; Na+ 150 mM, DNA 0.4 mM) was “X”. For the same molecule, the gelation ([8]; Na+ 150 mM, DNA 0.5 mM) was “◯”, the “temperature at which gel is present” value ([9]; DNA concentration 0.4-0.5 mM) was “gel at 45 °C” and the “temperature at which sol is present” value ([9]; DNA concentration 0.4-0.5 mM) was “sol at 55 °C”. The “temperature at which gel is present” value ([9]; DNA concentration 0.6-0.8 mM) was “gel at 55 °C”, the “temperature at which sol is present” value ([9]; DNA concentration 0.6-0.8 mM) was “sol at 65 °C” and the gel formation [10] was “gels can be prepared”. The “release of OVA from the gel” value ([11]; NaCl 5 mM) was “all OVA was released for a short time”, the “percentage of OVA released” value ([11]; NaCl 150 mM, 24 hours) was “about 60%” and the “gel formation in a living body” value [12] was “gelation occurred in a living body after administration”.

Source: patent publication US9393309B2, “Self-gelatinizable nucleic acid” (Kyoto University, priority 2011, dated 2016)
